Where a chain is given by its changes, count along the chain named.
T1: GFP-9S library array, motif 4 ND N98W;D124P (synthetic construct, N98W;D124P)
T1 chain: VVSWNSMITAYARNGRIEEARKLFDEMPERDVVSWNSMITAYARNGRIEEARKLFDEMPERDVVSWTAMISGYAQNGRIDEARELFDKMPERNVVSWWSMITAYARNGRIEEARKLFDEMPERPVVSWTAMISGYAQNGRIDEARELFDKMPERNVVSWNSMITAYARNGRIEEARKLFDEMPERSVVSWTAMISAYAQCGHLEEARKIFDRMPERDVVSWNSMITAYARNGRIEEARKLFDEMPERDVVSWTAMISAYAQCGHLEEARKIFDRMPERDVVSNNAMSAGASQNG

T2: GFP-9S library array, motif 4 ND N98I;D124A (synthetic construct, N98I;D124A)
T2 chain: T1 chain with W98I, P124A

T3: GFP-9S library array, motif 4 ND N98C;D124W (synthetic construct, N98C;D124W)
T3 chain: T1 chain with W98C, P124W

T4: GFP-9S library array, motif 4 ND N98T;D124A (synthetic construct, N98T;D124A)
T4 chain: T1 chain with W98T, P124A

T5: GFP-9S library array, motif 4 ND N98V;D124E (synthetic construct, N98V;D124E)
T5 chain: T1 chain with W98V, P124E


How the values were obtained:
Assay in all cases: high-throughput RNA pulldown from lysate on Ni-NTA beads; HRP: 50 mM Tris pH 8, 150 mM NaCl, 1 mM beta-mercaptoethanol, 50 ug/ml BSA, 3 ug/ml yeast RNA, 0.5% heparin; ITC and FP: Tris pH 8, 200 mM KCl, 5% glycerol; MST: 50 mM Tris pH 8, 200 mM NaCl, 1 mM DTT, BSA, heparin, 0.05% Tween 20
Conditions in all cases: tags: N-terminal His-eGFP
[1] = target: T1, GFP-9S library array, motif 4 ND …
[2] = target: T2, GFP-9S library array, motif 4 ND …
[3] = target: T3, GFP-9S library array, motif 4 ND …
[4] = target: T4, GFP-9S library array, motif 4 ND …
[5] = target: T5, GFP-9S library array, motif 4 ND …

| Binder | Kd ([1]; label: 5' IRDye 800CW) | Kd ([2]; label: 5' IRDye 800CW) | Kd ([3]; label: 5' IRDye 800CW) | Kd ([4]; label: 5' IRDye 800CW) | Kd ([5]; label: 5' IRDye 800CW) | Kd ([1]; label: 5' Cy5) | Kd ([2]; label: 5' Cy5) | Kd ([3]; label: 5' Cy5) | Kd ([4]; label: 5' Cy5) | Kd ([5]; label: 5' Cy5) |
| --- | --- | --- | --- | --- | --- | --- | --- | --- | --- | --- |
| AUUAUACGUGA (ssRNA) [IR-rpoA-U] | 526 nM | 757 nM | 234 nM | 173 nM | 244 nM | – | – | – | – | – |
| AUUACACGUGA (ssRNA) [Cy5-rpoA] | – | – | – | – | – | 230 nM | 213 nM | 86.1 nM | 107 nM | 287 nM |
| AUUAAACGUGA (ssRNA) [IR-rpoA-A] | 579 nM | 620 nM | 171 nM | 52.8 nM | 168 nM | – | – | – | – | – |
| AUUAGACGUGA (ssRNA) [Cy5-rpoA-G] | – | – | – | – | – | 215 nM | 259 nM | 84.9 nM | 70.1 nM | 167 nM |
